# According to patent US20110020353A1 (published 2011):
# Target: T1, 161P2F10B variant 1 (human), on the cell surface (human, UniProt O14638 1-875)
# T1 construct: Reported to be dimeric on the cell surface; also called 161P2F10B v.1; CD203c
# Assay: FACS on KU-812 cells, serial dilutions, one site binding fit
binder,measurement,value
"Ha16-1.42 (antibody, V domains shown) VH: EVQLVQSGAEVKKPGESLKISCKGSGYRFTSYWIGWVRQMPGKGLEWMGIIYPGDSDTRYSPSFQGQVTISADKSISTAYLQWSSLKASDTAMYYCARKDYYYYSMDVWGQGTTVTVSS VL: QSALTQPASVSGSPGQSITISCTGTSSDVGRFNYVSWYQQRPGKAPKLMIYAVNIRPSGVSNRFSGSKSGNTASLTISGLQAEDEAGYYCSSYTSSSTLLVFGGGTKLTVLG",Kd,0.02 nM
